Patent US20090111769A1, “Antithrombotic Compound” (priority 2005, published 2009)
Counter-ions that a name gives are not always drawn.

Tests used:
[1] = Pharmacokinetics after s.c. administration in rat (plasma concentration by anti-Xa activity); assay type: in vivo, male Wistar rats; settings: male, Wistar, sc, 500 nmol/kg
Protocol: The pharmacokinetic properties of compound 3 were studied in male Wistar rats of 300-400 gr. The rats were anaesthetized by inhalation of a mixture of O2/N2O/isoflurane, after which the right jugular vein was cannulated. The next day rats were treated s.c. with doses of 100 or 500 nmol/kg. After s.c. administration, blood was sampled at several time intervals. Then the blood was centrifuged after which the plasma was siphoned off and stored at −20° C. until use. The concentration of the tested compound was measured amidolytically with S2222 (Chromogenix, Chromogenics Ltd, Molndal, Sweden) by determination of the anti-Xa activity based on the method of Teien and Lie in the obtained plasma samples against a calibration curve which was made of the stock solution of the tested compound itself. (Teien A N, Lie M. Evaluation of an amidolytic heparin assay method increased sensitivity by adding purified antithrombin III. Thromb. Res. 1977, 10: 399-410). The concentration in the samples was expressed in nmol/mL and the kinetic parameters were calculated with the noncompartment model of WinNonlin.

[2] = test system: human platelet aggregation induced by ADP; assay: In vitro test for inhibition of human platelet aggregation induced by ADP (platelet rich plasma); assay type: cell-based; settings: read-out: IC50, inhibition of human platelet aggregation induced by 5 μM ADP
Protocol: • 1. Sysmex blood cell counter model KX-21. • 2. […] Absorption is measured with the Labsystems iEMS program. • 3. Blood collection system 600 mL with needle, art P4203 (NPBI). • 4.
The optical density (OD620) is then measured at 620 nm. […] This is to verify the stability of the platelets (absence of spontaneous platelet aggregation). […] Between two measurements, the plate is shaking for 40 seconds at 1,000 rpm. Each test compound is investigated in at least 2 experiments using PRP from different volunteers.
The mean OD at each compound concentration (including vehicle) is calculated at t=0 min and t=10 min. The percentage inhibition at each concentration is calculated using the formula: […]

[3] = test system: human platelet aggregation induced by TRAP; assay: In vitro test for inhibition of human platelet aggregation induced by TRAP (washed platelets); assay type: cell-based; settings: read-out: IC50, inhibition of human platelet aggregation induced by 5 μM TRAP
Protocol: This aggregation can be determined by measuring the optical density of the WPL. The in vitro test described here is used to analyze the activity of a test compound to inhibit TRAP-induced aggregation of human platelets. […] Between two measurements, the plate is shaking for 40 seconds at 1,000 rpm.

CO[C@H]1O[C@H](COS(=O)(=O)O)[C@@H](O[C@@H]2O[C@@H](C(=O)O)[C@@H](O[C@H]3O[C@H](COS(=O)(=O)O)[C@@H](O[C@@H]4O[C@H](C(=O)O)[C@@H](O[C@H]5O[C@H](COS(=O)(=O)O)[C@@H](OCCOCCOCCOCCNC(=O)COCCOCCOCCOCCNC(=O)c6cccc(S(=O)(=O)N[C@@H](Cc7ccc(OCCCCC8CCNCC8)cc7)C(=O)O)c6)[C@H](OC)[C@H]5OC)[C@H](OC)[C@H]4OC)[C@H](OS(=O)(=O)O)[C@H]3OS(=O)(=O)O)[C@H](OC)[C@H]2OC)[C@H](OS(=O)(=O)O)[C@H]1OS(=O)(=O)O [Compound 3, sodium salt]
Tmax ([1]; n = 3): 2.5 h
AUC(0-inf) ([1]; n = 3, mean ± s.e.m.): 75.3 ± 3.2 µM·h
Cmax ([1]; n = 3, mean ± s.e.m.): 5 ± 0.4 µM
half-life ([1]; n = 3, mean ± s.e.m., read-out: T½ eli (converted)): 9.3 ± 0.2 h

CCCCS(=O)(=O)N[C@@H](Cc1ccc(OCCCCC2CCNCC2)cc1)C(=O)O [tirofiban]
IC50 [2]: 30 to 60 nM
IC50 [3]: 30 to 60 nM
